Assay [1] has as its target T1, cynomolgus monkey CD3 on the surface of expanded monkey T cells (cynomolgus monkey, UniProt Q95LI5 22-198; Q95LI8 22-171; Q95LI7 23-181).
T1 construct: whole, on cells; Endogenous CD3 within the TCR-CD3 complex on T cells expanded from cynomolgus monkey PBMC
In words: FACS, expanded monkey T cells. The method, then: (§1) The binding of the chimeric antibodies to CD3 on the cell surface was analyzed by detecting the binding of the antibodies to Jurkat cells and human T cells. Suspension cells Jurkat cells were scale-up cultured in T-75 cell culture flasks to the logarithmic growth phase, the supernatant of the medium was discarded by centrifugation, and the cell pellet was washed 2 times with PBS for later use. The expanded human T cells were washed 2 times with PBS for later use. After counting the cells in the previous step, the cell pellet was resuspended with [PBS+2% (w/w) BSA] blocking solution to 4×10⁶ cells/ml, and added to a 96-well FACS reaction plate at 50 μl/well, and then the chimeric antibody to be tested was added at 50 μl/well, and incubated at 4° C. for 1 h. The cells were centrifuged and washed 3 times with a PBS buffer. […] The cells were centrifuged and washed 5 times with PBS, and FACS (FACS Canto™, purchased from BD Company) was used for detection and result analysis. Data analysis was performed by software (CellQuest) to obtain the mean fluorescence […] (MFI) of the cells. And then software (GraphPad Prism8) was used for analysis, data fitting, and EC50 value calculation. The same method was used to simultaneously detect the binding of the chimeric antibodies to endogenous CD3 negative cells MOLT4 cells.
(§2) FACS detection and data analysis were performed on the cryopreserved monkey T cells of Example 2.4 according to the method in Example 5.1.

For assay [2], the target named is T1, cynomolgus monkey CD3 on the surface of …. As to the kind of experiment: FACS, expanded monkey T cells. The method, then: as §1, with “MOLT4 cells. […]” for “MOLT4 cells.”
The source holds these as a separate data set. In general terms: Flow cytometry measures light scatter and fluorescence of single cells or particles in a stream.

For assay [3], the target named is T2, recombinant human CD3ε-ECD His protein (human, UniProt P07766 23-126).
T2 construct: extracellular domain; also called human CD3ε-His; CD3ε antigen protein; not shown: His tag
As to the kind of experiment: SPR (Biacore), antibody captured on Protein A chip. For orientation: In SPR one partner is held on a chip, and binding of the other changes the refractive index at the surface.

Assay [4] deals with T1, cynomolgus monkey CD3 on the surface of …. In words: FACS, expanded monkey T cells. The method, then: as §1, §2
The source holds these as a separate data set.

By EC50 is commonly meant the concentration needed to bring the measured effect to its halfway point. The term Kd denotes the constant that tells how readily two partners part at equilibrium. What is called koff is the rate constant with which the complex falls apart. Usually kon stands for the rate constant with which the complex forms.

Read-outs that look alike come from different tables or passages of the source.

T2 sequence (P07766 23-126): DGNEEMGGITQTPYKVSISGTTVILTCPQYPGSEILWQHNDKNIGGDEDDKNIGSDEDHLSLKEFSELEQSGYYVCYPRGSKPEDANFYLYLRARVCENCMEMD
T1 sequence (Q95LI5 22-198, chain 1 of 3): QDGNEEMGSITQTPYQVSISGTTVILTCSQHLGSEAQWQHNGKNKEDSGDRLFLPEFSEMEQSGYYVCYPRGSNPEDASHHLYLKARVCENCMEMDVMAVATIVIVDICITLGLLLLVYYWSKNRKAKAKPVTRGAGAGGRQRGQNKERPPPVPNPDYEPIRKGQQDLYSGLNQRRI
T1 sequence (Q95LI8 22-171, chain 2 of 3): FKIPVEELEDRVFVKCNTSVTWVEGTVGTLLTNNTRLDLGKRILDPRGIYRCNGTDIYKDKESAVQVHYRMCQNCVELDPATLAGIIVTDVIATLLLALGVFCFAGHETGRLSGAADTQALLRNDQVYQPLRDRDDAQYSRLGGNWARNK
T1 sequence (Q95LI7 23-181, chain 3 of 3): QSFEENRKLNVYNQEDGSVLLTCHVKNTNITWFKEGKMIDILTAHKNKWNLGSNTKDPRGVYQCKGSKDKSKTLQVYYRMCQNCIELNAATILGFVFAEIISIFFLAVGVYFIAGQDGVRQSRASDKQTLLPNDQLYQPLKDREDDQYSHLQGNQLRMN

B1: 40G5c-hIgG1 (antibody, V domains shown)
VH: EVQLVQSGAEVKKPGASVKVSCKASGYTFTNYYIHWVRQAPGQGLEWIGWIYPGDGNTKYNEKFKGRATLTADTSTSTAYLELSSLRSEDTAVYYCARDSYSNYYFDYWGQGTLVTVSS
VL: DIVMTQSPDSLAVSLGERATINCKSSQSLLNSRTRKNYLAWYQQKPGQPPKLLIYWASTRESGVPDRFSGSGSGTDFTLTISSLQAEDVAVYYCTQSFILRTFGQGTKVEIKR
In assay [1], B1 had an EC50 of 0.28 nM and an MFI_Max of 66000 MFI. Moreover, the EC50 in assay [2] stood at 0.53 nM. In addition, in assay [3], the dissociation constant Kd came out at 0.203 nM, the koff amounted to 0.000321 s⁻¹ and the kon amounted to 1.58e+06 M⁻¹ s⁻¹. Also, in assay [4], the EC50 amounted to 0.63 nM and the MFI_Max stood at 24100 MFI.

The record behind these values is patent US20250136687A1 (SHANDONG SIMCERE BIOPHARMACEUTICAL, published 2025).
